PMC7367685, “Reconstitution reveals two paths of force transmission through the kinetochore” (eLife, 2020)

Key:
[1] = molecular target: Cse4-NCP: nucleosome core particle of K. lactis 6XHis-H2A, K. lactis 6XHis-H2B, S. cerevisiae Cse4 and K. lactis 6XHis-H4, wrapped in 601 DNA (Kluyveromyces lactis | S. cerevisiae) (UniProt P36012); assay: optical trap force-ramp rupture assay; same beads and free proteins (10 nM each) as the attachment assay; bead on a growing microtubule tip, 1 pN preload, then a ramp of 0.25 pN/s until detachment; median rupture force of the whole chain; not single-molecule conditions; room temperature
[2] = molecular target: Cse4-NCP: nucleosome core particle of K. lactis 6XHis-H2A, K. lactis 6XHis-H2B, S. cerevisiae Cse4 and K. lactis 6XHis-H4, wrapped in 601 DNA (Kluyveromyces lactis | S. cerevisiae) (UniProt P36012); assay: optical trap bead-microtubule attachment assay (self-assembly and microtubule binding); one His6-tagged subcomplex on anti-His5 polystyrene beads (10 nM on 3.5 pM beads), the other subcomplexes free at 10 nM each; the bead was brought to a single growing microtubule with the laser trap, and a bead whose contact did not persist with the laser off counted as a nonbinder; no external force; BRB80 growth buffer with 1 mM GTP, room temperature; in negative controls one subcomplex was omitted
[3] = molecular target: T1, Ndc80c (Ndc80, Nuf2, Spc24-Flag, Spc25) (S. cerevisiae, UniProt P40460 1-691; P33895 1-451; Q04477 1-213; P40014 1-221); assay: optical trap bead-microtubule attachment assay (self-assembly and microtubule binding); one His6-tagged subcomplex on anti-His5 polystyrene beads (10 nM on 3.5 pM beads), the other subcomplexes free at 10 nM each; the bead was brought to a single growing microtubule with the laser trap, and a bead whose contact did not persist with the laser off counted as a nonbinder; no external force; BRB80 growth buffer with 1 …; details: both partners purified
T1 construct: Ndc80, S. cerevisiae; Nuf2, S. cerevisiae; Spc24, S. cerevisiae; Spc25, S. cerevisiae; also called Ndc80 complex; pJT048 with Ndc80/Nuf2; copies: + + +
T1 sequence (P40460 whole entry, chain 1 of 4): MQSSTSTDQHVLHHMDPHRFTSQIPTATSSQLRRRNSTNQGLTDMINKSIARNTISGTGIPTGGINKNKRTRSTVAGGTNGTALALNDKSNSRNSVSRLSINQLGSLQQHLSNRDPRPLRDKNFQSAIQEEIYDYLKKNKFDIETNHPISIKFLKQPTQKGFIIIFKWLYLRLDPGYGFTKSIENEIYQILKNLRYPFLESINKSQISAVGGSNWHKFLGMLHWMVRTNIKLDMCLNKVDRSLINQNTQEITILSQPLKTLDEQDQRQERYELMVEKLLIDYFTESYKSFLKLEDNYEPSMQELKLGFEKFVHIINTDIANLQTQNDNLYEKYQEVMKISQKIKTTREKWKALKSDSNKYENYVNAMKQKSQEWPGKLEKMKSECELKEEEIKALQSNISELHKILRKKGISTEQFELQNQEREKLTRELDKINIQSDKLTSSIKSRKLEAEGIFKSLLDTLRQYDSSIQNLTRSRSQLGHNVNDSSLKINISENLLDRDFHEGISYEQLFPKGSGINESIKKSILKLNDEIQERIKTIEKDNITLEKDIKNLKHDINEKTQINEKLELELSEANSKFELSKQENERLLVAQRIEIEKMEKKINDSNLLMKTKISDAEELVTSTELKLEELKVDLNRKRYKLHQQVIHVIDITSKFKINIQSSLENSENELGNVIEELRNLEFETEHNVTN
T1 sequence (P33895 whole entry, chain 2 of 4): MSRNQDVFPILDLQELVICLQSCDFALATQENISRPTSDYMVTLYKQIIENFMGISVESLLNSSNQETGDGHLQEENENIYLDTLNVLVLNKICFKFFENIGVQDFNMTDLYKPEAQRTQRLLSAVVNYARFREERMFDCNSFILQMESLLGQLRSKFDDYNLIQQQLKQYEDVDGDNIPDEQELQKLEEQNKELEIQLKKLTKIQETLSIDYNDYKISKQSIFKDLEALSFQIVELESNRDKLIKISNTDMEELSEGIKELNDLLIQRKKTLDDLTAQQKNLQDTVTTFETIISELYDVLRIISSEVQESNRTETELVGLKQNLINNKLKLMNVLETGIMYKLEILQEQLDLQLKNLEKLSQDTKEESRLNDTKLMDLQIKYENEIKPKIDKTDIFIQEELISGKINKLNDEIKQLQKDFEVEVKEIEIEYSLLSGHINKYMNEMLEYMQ
T1 sequence (Q04477 whole entry, chain 3 of 4): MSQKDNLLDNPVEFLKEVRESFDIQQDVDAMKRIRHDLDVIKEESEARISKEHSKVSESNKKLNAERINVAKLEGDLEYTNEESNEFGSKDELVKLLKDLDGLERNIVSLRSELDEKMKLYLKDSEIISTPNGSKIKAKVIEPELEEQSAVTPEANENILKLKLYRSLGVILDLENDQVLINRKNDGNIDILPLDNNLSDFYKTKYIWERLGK
T1 sequence (P40014 whole entry, chain 4 of 4): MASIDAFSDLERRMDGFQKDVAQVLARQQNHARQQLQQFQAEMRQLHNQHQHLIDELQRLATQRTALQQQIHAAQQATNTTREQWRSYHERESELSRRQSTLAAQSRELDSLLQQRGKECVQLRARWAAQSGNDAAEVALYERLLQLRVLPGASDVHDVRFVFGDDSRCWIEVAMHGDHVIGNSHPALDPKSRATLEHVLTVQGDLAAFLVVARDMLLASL

[4] = molecular target: T1, Ndc80c (Ndc80, Nuf2, Spc24-Flag, Spc25); assay: optical trap force-ramp rupture assay; same beads and free proteins (10 nM each) as the attachment assay; bead on a growing microtubule tip, 1 pN preload, then a ramp of 0.25 pN/s until detachment; median rupture force of the whole chain; not single-molecule conditions; room temperature; details: both partners purified

With “Mif2-linker-(27-392)MBP (from UniProt P35201 1-549) (natural protein)” the median rupture force of Cse4-NCP-based chains with both Mif2 and OA free (with 2D-MIND and Ndc80c) [1] was 4 pN, the median rupture force of the whole chain Cse4-NCP/Mif2/2D-MIND/Ndc80c [1] was 3.3 pN and the percent of beads that bound microtubules (Cse4-NCP beads with free Mif2, 2D-MIND and Ndc80c) [2] was 24%.

B1: MIND complex, wild type (Nsl1, FLAG-Dsn1, Mtw1, Nnf1) (complex, S. cerevisiae)
chain 1: MSQGQSKKLDVTVEQLRSIYHQFHDILEEKTDLHLPKKEYDDDAVRREVQIQLQEFLLSAMTMASKSLEVVNADTVGKTVKQLIMESQEKYMEPFDLDLNEQVRKMYQEWEDETVKVAQLRQTGPAKINEVYNNSKDEYLAQLDGRIGVLQARMMQQQSADHDDSTDDADDHINWEHIKQDYVASLNELYQTQQDLPKVRYNVEKVKRLMDFLEED
chain 2: MSLEPTQTVSGTPPMLHQRTHKQVYPLRMETIPILESDSKATLQSNEPTQKDEEETEYFENKQSVSNLSPDLKFKRHKNKHIQGFPTLGERLDNLQDIKKAKRVENFNSSAPIADDNHSGDATANATANATANATANVNASAMPAPYMPYYYYYHPMNAPTPAMIPYPGSPMHSIMPNSSLQPFYSQPTAAGGPDMTTPQNISSSQQLLPAPQLFPYGSFHQQQLQQPHYIQRTRERKKSIGSQRGRRLSMLASQANGGSTIISPHKDIPEEDFYTVVGNASFGKNLQIRQLFNWCLMRSLHKLELKAKNQEEEGELEHLTKKSKLESTKAETDYVDPKRLAMVIIKEFVDDLKKDHIAIDWEDEEKYEDEDEEKILDNTENYDDTELRQLFQENDDDDDDDDEVDYSEIQRSRRKFSERRKALPKEPKKLLPNSKNVENTKNLSILTSKVNAIKNEVKEWAVTLDTSRPDLEWQELTSFSSQPLEPLSDTEEPDLAIADVETKLETKVDELRYQSHILNSHSLALNEITNSKVNKLNIETMRKISSETDDDHSQVINPQQLLKGLSLSFSKKLDL
chain 3: MSAPTMRSTSILTEHLGYPPISLVDDIINAVNEIMYKCTAAMEKYLLSKSKIGEEDYGEEIKSGVAKLESLLENSVDKNFDKLELYVLRNVLRIPEEYLDANVFRLENQKDLVIVDENELKKSEEKLREKVNDVELAFKKNEMLLKRVTKVKRLLFTIRGFKQKLNELLKCKDDVQLQKILESLKPIDDTMTLLTDSLRKLYVDSESTSSTEEVEALLQRLKTNGKQNNKDFRTRYIDIRTNNVLRKLGLLGDKEDEKQSAKPDARTQAGDIVSIDIEEPQLDLLDDVL
chain 4: MVNSHGIRYIRLKQVFNRALDQSISKLQSWDKVSSCFPQYVNSKQGAINVANCQRQLTEFWTELCQREFKEIMEERNVEQKLNELDELILEAKERYTDRDQDEVNKGPAIDELSSKELVECHLYSQRMHAIHEIDERLAKVNEMNDQLAQELKDLETQVEVEKNEIGKMYDEYLGSHTDQPANVLLVQSLNDMVLELKENY
notes: Nsl1, S. cerevisiae; Dsn1, S. cerevisiae; Mtw1, S. cerevisiae; Nnf1, S. cerevisiae; also called wild-type MIND; pGH46; copies: + + +
B1: binds [3].

B2: 2D-MIND complex (FLAG-Nsl1, S240D, S250D-Dsn1, Mtw1, Nnf1) (complex, S. cerevisiae)
chain 1: MSQGQSKKLDVTVEQLRSIYHQFHDILEEKTDLHLPKKEYDDDAVRREVQIQLQEFLLSAMTMASKSLEVVNADTVGKTVKQLIMESQEKYMEPFDLDLNEQVRKMYQEWEDETVKVAQLRQTGPAKINEVYNNSKDEYLAQLDGRIGVLQARMMQQQSADHDDSTDDADDHINWEHIKQDYVASLNELYQTQQDLPKVRYNVEKVKRLMDFLEED
chain 2: MSLEPTQTVSGTPPMLHQRTHKQVYPLRMETIPILESDSKATLQSNEPTQKDEEETEYFENKQSVSNLSPDLKFKRHKNKHIQGFPTLGERLDNLQDIKKAKRVENFNSSAPIADDNHSGDATANATANATANATANVNASAMPAPYMPYYYYYHPMNAPTPAMIPYPGSPMHSIMPNSSLQPFYSQPTAAGGPDMTTPQNISSSQQLLPAPQLFPYGSFHQQQLQQPHYIQRTRERKKDIGSQRGRRLDMLASQANGGSTIISPHKDIPEEDFYTVVGNASFGKNLQIRQLFNWCLMRSLHKLELKAKNQEEEGELEHLTKKSKLESTKAETDYVDPKRLAMVIIKEFVDDLKKDHIAIDWEDEEKYEDEDEEKILDNTENYDDTELRQLFQENDDDDDDDDEVDYSEIQRSRRKFSERRKALPKEPKKLLPNSKNVENTKNLSILTSKVNAIKNEVKEWAVTLDTSRPDLEWQELTSFSSQPLEPLSDTEEPDLAIADVETKLETKVDELRYQSHILNSHSLALNEITNSKVNKLNIETMRKISSETDDDHSQVINPQQLLKGLSLSFSKKLDL
chain 3: MSAPTMRSTSILTEHLGYPPISLVDDIINAVNEIMYKCTAAMEKYLLSKSKIGEEDYGEEIKSGVAKLESLLENSVDKNFDKLELYVLRNVLRIPEEYLDANVFRLENQKDLVIVDENELKKSEEKLREKVNDVELAFKKNEMLLKRVTKVKRLLFTIRGFKQKLNELLKCKDDVQLQKILESLKPIDDTMTLLTDSLRKLYVDSESTSSTEEVEALLQRLKTNGKQNNKDFRTRYIDIRTNNVLRKLGLLGDKEDEKQSAKPDARTQAGDIVSIDIEEPQLDLLDDVL
chain 4: MVNSHGIRYIRLKQVFNRALDQSISKLQSWDKVSSCFPQYVNSKQGAINVANCQRQLTEFWTELCQREFKEIMEERNVEQKLNELDELILEAKERYTDRDQDEVNKGPAIDELSSKELVECHLYSQRMHAIHEIDERLAKVNEMNDQLAQELKDLETQVEVEKNEIGKMYDEYLGSHTDQPANVLLVQSLNDMVLELKENY
notes: Nsl1, S. cerevisiae; Dsn1, S. cerevisiae, with two phosphomimetic substitutions; Mtw1, S. cerevisiae; Nnf1, S. cerevisiae; also called phosphomimetic MIND; pGH62; copies: + + +
B2: binds [4].
